{"source": "the DeepSol protein solubility set"}
{"experiment": "soluble on expression in E. coli; label from the status in PepcDB or PDB records"}
{"sequence": "MDSGVEASGYPPVGRAKILLERAVNPIPSPRRELEQYTTPADIAVRIAVDALLRGLLEGALAADLAAGTCRLGLALLLYGASRVAAVEADGRLAGLCLGAAEKLGLGGRIFFVASRVSRRRGPLAAGSVDLVATNPPFGVWRRGADWEVLEYALRLKPRAVYAIVKSGNMGFHAAKAAGLGYSTLLISREHFPIPASMPGHRSRVRRVSVDVVLFTRGG", "soluble on expression in E. coli": "soluble"}
{"sequence": "SNCRSEVLEVSVEGRQVEEAMLAVLHTVLLHRSTGKFHYKKEGTYSIGTVGIQDVDCDFIDFTYVRVSSEELDRALRKVVGEFKDALRNSGGDGLGQMSLEFYQKKKSRWPFSDECIPWEVWTVKVHVVALATEQERQICREKVGEKLCEKIINIVEVMSRHEYLPKMPTQSEVDNVFDTGLRDVQPYLYKISFQITEALGTSVTTTMRRLIKDTLAL", "soluble on expression in E. coli": "soluble"}
{"sequence": "MSLVLYRKLKKAKSLEEIKNTFKNLTKSISSLVMRGMHFYDLSNILTEIYDYLVVKVIEMEKERFEREWGKLPSFAWVHMGSSARKEQVIATDQDNAIVHEGDGEGLSQFAESVNNALDYVGIPKCRGGYMAMNWCKSVEEWKSVFSEWFIKLTPDNLRFLSVFLDLRVIYGDEKLCKELIEHIKREHTSQSLRYLAYDATIAEPPLGLFGLRMKKEIDLKMNGIYPIVNGVRVLALEHGLIEVTNTRERLEELKEAHVMDADLAESLKETYEFLQDLRLRLQAKEVVEGKKADNVIKVSEIDRIEAFVLKEGFKVIKKFQNFLKGHYSIERGLEGHHHHHH", "soluble on expression in E. coli": "soluble"}
{"sequence": "MAHHHHHHMGNDEIFEDLFISDTEPEELYEELGPIGVGNYGSVIKARNRQTQAIAAIKLVLLVDKDERDFVQKEISILKKCVHPNIVRYYGAHKSLSKLWIVMEYCEGGSVDMVYKVLRHPLPENLIAYVCRQVLLGLQYLHANRKIHRDIKGGNILLTRDGDVKLADFGVSTELSHSLSRRNTFVGTLLWMSPEAILELDYDEKADLWSLGITLIEMAEGAPPYIDTHPARALFMIPKVDPPTLHDKDRWSPQMALFLKRLLIKDYRLRPTATAMLNDPFVAPEKIGTKEQMKAVIDEVLAKKEAMSPQRLHGETNSSATFVERTSTDTDGEDGVTNDTCTSGRAPTGAKVPANTSPVAMEAIDITGAHLFFHDGTLLPLPMLSTHDIGFDELGLGREGIGPFAKPVPDAESLLVPPEQRSTALHGSGGLAYTMHVTQTLKSMLYYHKQLPFFREVTDTEAIKSKELQLKYGSILKSIYRL", "soluble on expression in E. coli": "soluble"}
{"sequence": "MSLANKPLAKALETISGIPITPFRKSDGSIDWHHYKETVDRIVDNGIDVIVPCGNTSEFYALSLEEAKEEVRRTVEYVHGRALVVAGIGYATSTAIELGNAAKAAGADAVMIHMPIHPYVTAGGVYAYFRDIIEALDFPSLVYFKDPEISDRVLVDLAPLQNLVGVKYAINDLPRFAKVVRSIPEEHQIAWICGTAEKWAPFFWHAGAKGFTSGLVNLLPQKAVEMLEALRNNDNDAVWRIWEDIVPFEDLRGKYNQGNNVVVIKEAMEMLRQNAGVTRAPVNELSNEDKQLVTELLSSWKLLQPTKGEGHHHHHH", "soluble on expression in E. coli": "soluble"}
{"sequence": "MGSDKIHHHHHHLGFGAPKISNEEERLRALAEYRILGTQPEQCYDDITKIASLTCGTPISLMSLVDTDTQWFKSMCGFETKETSRDVSFCAHAIASSEPLIVEDALLDERFKSNPLVVEEPKIRLYAGFPLQTPNDQRIGTLCVIDRKPGHLSDHQHQIMEALSRQVVTLLELRKRSIRLLDALTHMHNTEGILTTCSYCKEVRDSDGEWQHLEKYLSKIADIRFSHGICDLCMEKHFPDVLEVWSDDKLDLNSKKNKPECKKSN", "soluble on expression in E. coli": "not soluble"}
{"sequence": "MSKLELLPAVDVRDGQAVRLVHGESGTETSYGSPLEAALAWQRSGAEWLHLVDLDAAFGTGDNRALIAEVAQAMDIKVELSGGIRDDDTLAAALATGCTRVNLGTAALETPEWVAKVIAEHGDKIAVGLDVRGTTLRGRGWTRDGGDLYETLDRLNKEGCARYVVTDIAKDGTLQGPNLELLKNVCAATDRPVVASGGVSSLDDLRAIAGLVPAGVEGAIVGKALYAKAFTLEEALEATSLEPG", "soluble on expression in E. coli": "soluble"}
{"sequence": "MPLQQTLGVDCQTAADAGGEPHCFAGPVRERRMDSVLVIGGGRFIGRHTVTEFRDAGYDVTMLTRGRRQNPFTNAEVAHIEGDRRERDTLETARERVNPDVVVDCVAYFPEDVRVATDVFADVGAYVYISSGAAYGAERTPKREGETPLAGCTAEQATTDSAETYGPRKAEGDREVFAAAEDGVQAMSVRPTVVYGPYDYTERFAYWVDRVAEYDRVVVPSDGLSLWQMAYVEDVASALRLVAERGTAGEAYNVGDEHAPTLREWVDLLARVHETDVETIGVGERELRAAGLAPDDFPIYRDSPHLLSTAKLRGLGWSSTPHETALAVTVAEHLENDRTGREFGPDRDTEAALIDRLTE", "soluble on expression in E. coli": "not soluble"}
{"sequence": "MAHHHHHHMCGVIEGLWTRGGRVFHRYVRPSDPRRISAAAAAVHGITWETVQNCSPWPVVARELVAYMALVGADAPVSASAQLEAAQLGGQRAVHLPPLVAHNASFDARFLEHHLRRCGYQIFWHPRYPLTCTRQWAQVAYPHLANNLDALCAFLSIDWAADRAANGHDALTDATLTALLFLQMCRRWMERFGRGE", "soluble on expression in E. coli": "not soluble"}
{"sequence": "MTEKVSRFPGVFPLIVIGVPGSVDKTHKKLAFAPNLNRWRDIDVEKYFKVFEVYLENDANLAALAEMMRNKHFGDRKNIVYILVREGIGGGIIIEGKLYKGSFNAAGEIGHMKMYDRGPCFCGRVGCWEANTSISHCVRQYEKKKPLPGNTMYEKFETLCRIYEEDPLAKEVLDEFTGILIDGIVNLVNILSPEIVIVGGEGVFLPESVFEVIVSETRRQVHPMDKEVSVEKGSLSNKEVVLEGTSILSSMMISERLV", "soluble on expression in E. coli": "soluble"}
{"sequence": "MALPQDSVNMALFCDFENIALGVRDTKFEKFDIKPVLEKLLLKGSIVVKKAYCDWDRYKTFKAAMHEASFELIEIPHVRQSGKNSADIRLVVDALDLCYTKAHVDTFVIISGDSDFSPLVSKLRENAKRVIGVGVKNSTSDLLVANCDEFIFYDDLAR", "soluble on expression in E. coli": "not soluble"}
{"sequence": "MWKLQSPHSCVPMLVWDCSLHPPSQYCSPLFETAVAENINRLSSHCIKKKSIQRGEKMKKILKLLSCIVVLTIAGCLNQPPPSTLALWEKPGADKAMTQQALTKCGWKPVYASPDDMNSYASEFASVYECMKKAGFRYKLQDSKGIYFSPPAKSSSFLSNLMVAGYQQFMENESFGVSNSTKHERELMLRIEKEKKRQKTKKSLQR", "soluble on expression in E. coli": "not soluble"}
{"sequence": "FMQDFEDIQKDIEQLDIKCAHEQMNIQKQYDEKKKPLFEKRDEIIQKIPGFWANTLRKHPALSDIVPEDIDILNHLVKLDLKDNMDNNGSYKITFIFGEKAKEFMEPLTLVKHVTFDNNQEKVVECTRIKWKEGKNPIAAVTHNRSDLDNEIPKWSIFEWFTTDELQDKPDVGELIRREIWHNPLSYYLGLEE", "soluble on expression in E. coli": "soluble"}
{"sequence": "MQDSKIPPFSEAKRMKIPTPKQPLTQLPPRIGKKVSNRSKSNQVHAISHQLEMSPNSDSSPGNEYRALRRKYLLLEEDSFALERELKEAEDEVKALEDEKLELLDKLVVMEGLVDP", "soluble on expression in E. coli": "soluble"}
{"sequence": "MINANRPIINLDLDLLRTFVAVADLNTFAAAAAAVCRTQSAVSQQMQRLEQLVGKELFARHGRNKLLTEHGIQLLGYARKILRFNDEACSSLMFSNLQGVLTIGASDESADTILPFLLSRISSVYPKLALDVRVKRNAYMVDMVKSQEVDLVVTTNQPHSLDCLNLRTSPTHWYCAAEYVLQRGEPVPLVLLDDPSPFRDMVLETLNAAGIPWRLAYVASTLPAVRAAVKAGLGVTARPVEMMSPDLRVLGAADGLPPLPDTEYLLCRDPNSQNELAMVIFHAMESYQNPWHYNQFSAEGGDDPLMVEGGFE", "soluble on expression in E. coli": "not soluble"}
{"sequence": "GSHMVNIIQKFIPVGANNRPGYAMKPKYITVHNTANTAVGADAAAHARYLKNPDTTTSWHFTVDDKEIYQHLPLNENGWHAGDGNGSGNRASIGIEICENADGDFAKATANAQWLIKTLMAEHNISLANVVPHKYWSGKECPRKLLDKWDSFKAGIG", "soluble on expression in E. coli": "soluble"}
{"sequence": "MPSNPTRKGRVVVGMSGGVDSSVTAWLLKQQGYEVVGLFMKNWEDDDDSEYCSTRQDLLDAASVADLVGVEFEYVNFAAEYKDRVFAEFLREYSAGRTPNPDVLCNAEIKFKAFLDHAMALGAEHIATGHYARVRTVETPAGPRHQLLKALDDTKDQSYFLHRLNQVQLARTLFPLGELRKTEVRRIAHEIGLHNAAKKDSTGICFIGERPFREFLNRYLPSEPGPILTPEGQRVGTHHGLSFYTLGQRKGLGVGGVKGRQRDDGTAEAWYAARKDLARNVLYVVQGHDHPWLLSAQLQAQDASWIAGEPPAAGAYGAKTRYRQADAACRLDQAGGERFALAFEQAQWAVTPGQSAVLYDGEVCLGGGIIILEHHHHHH", "soluble on expression in E. coli": "soluble"}
{"sequence": "MRSTKVIHIVGCHAEGEVGDVIVGGVAPPPGETVWEQSRFIANDETLRNFVLNKPRGGVFRHVNLLVPPKDPRAQMGFIIMEPADTPPMSGSNSICVSTVLLDSGIIAMQEPVTHMVLEAPGGIIEVEAECRNGKAERISVRNVPSFADRLDAPLDVTGLGTIMVDTAYGGDSFVIVDAAQIGMKIEPGQARELAEIGVKITKAANEQLGFRHPERDWRHISFCQITEPVTREGDVLTGVNTVAIRPAKFDRSPTGTGCSARMAVLHAKGQMKAGERFIGKSVLGTEFHCRLDKVLELGGKPAISPIISGRAWVTGTSQLMLDPSDPFPHGYRLSDTWPRDELEHHHHHH", "soluble on expression in E. coli": "soluble"}
{"sequence": "QDSKVFDPFLAAITPEIMPVKGKLAEKALPLIDQQLQGQPGSTVLLVSDGVNPATIKQYQAYFAGKPYQLLILAAGNTDIVSNNPMDLDSLQKLASQTNGRLVEVTVDNSDIEQLNRYVERNMQLNGESSMPWKD", "soluble on expression in E. coli": "not soluble"}
{"sequence": "MSLNGTSGSVARQLAARRIIGTSWRLFVAYLKWSGVLEVSFKGVEKLNRPGQLILANHPSLLDVVLLVGHVPEMNCIVKKDLQHNPAMSSQIKGAGYIPNEESEAMLETVKAVFDSGQSLLVFPEGTRTGWDGRVKMHRGAVSLGLRYAEVITPVCIKMNPPNFKKGQPWYRIPPKRIRYEITVGDDILPQDWLAEKPLPIAARRLNEYLQDYFTRKTIEGHHHHHH", "soluble on expression in E. coli": "not soluble"}
{"sequence": "MSGETTRLTEPQLRELAARGAAELDGATATDMLRWTDETFGDIGGAGGGVSGHRGWTTCNYVVASNMADAVLVDLAAKVRPGVPVIFLDTGYHFVETIGTRDAIESVYDVRVLNVTPEHTVAEQDELLGKDLFARNPHECCRLRKVVPLGKTLRGYSAWVTGLRRVDAPTRANAPLVSFDETFKLVKVNPLAAWTDQDVQEYIADNDVLVNPLVREGYPSIGCAPCTAKPAEGADPRSGRWQGLAKTECGLHAS", "soluble on expression in E. coli": "soluble"}
{"sequence": "NPAIAMTEKEIKEYGFPFDARFCSLPLVHADDLKQIFGRYASEVCCRYLRPFDSDYYTLATKNFYQTDIAALDPTAVVGGEDTIRGLMRVATEVCFVIESGKPGAFHPRIHFEKSFRYAHLSLEEKKAWQRLSDDYFHKRNDDLWKQEALSRLIPLLSSTDMLVCVEDLGMIPPAVPVVMEQLQLLSLILERISKEPGQDFADMSRQPYCSVCTTSTHDMAPLRLWWQENELPRRHYYSMILGEKGTAPETCTPETARRILRQHLLSTSMLAIFPLADWLSLSGELQGIVAPEDEQINKPEISDHYWRYRMPISIESLSEDYRELNESIASLIRTSGRG", "soluble on expression in E. coli": "not soluble"}
{"sequence": "MAHHHHHHMTGVASLHRESERSKRKSSGGERNADEADTEGTAGARNAHAKQKQKTVRQGVAVCVWCCGCLPALTARKQNKRERNVCSAPQALVARPHVTAPSARRSSRPLLMRAAGEAHRAVVMSVSVGVRVEQLGGKHTAPLTGRVQKKQLKEGRVEKKRTSTVIAPESKKEKGW", "soluble on expression in E. coli": "not soluble"}
